Measurements as given in the supplement of paper PMC9170038.

Test system: MS2 coat protein
Assay: apparent KD of MS2 coat protein; designed switch direction (-1 OFF switch, 1 ON switch): -1; higher = weaker reporter binding
Procedure, shortened: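 Apparent KD, taken as the median over clusters for each design, was obtained by curve-fitting normalised cluster fluorescence. Designed RNA switches had been transcribed on Illumina chips by stalled E. coli RNA polymerase and titrated with SNAP-549-labelled MS2 coat protein, doubling from 0.7 or 1.5 nM to 3 µM.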

[1] = Eterna round: R95, input ligand: microRNA oligo, concentration not stated
[2] = input ligand: microRNA oligo, concentration not stated
[3] = Eterna round: R95, input ligand: FMN 200 uM
[4] = Eterna round: R95, input ligand: none

Sequence	apparent KD of MS2 coat protein (input ligand: FMN 200 uM)	apparent KD of MS2 coat protein (input ligand: none)	apparent KD of MS2 coat protein [1]	apparent KD of MS2 coat protein [2]	apparent KD of MS2 coat protein [3]	apparent KD of MS2 coat protein [4]
CUGAGCAGACGGAGAUCCAACAUGAGGAUCACCCAUGUCUCAAAAGCUUUUUGCUCGUCUUAUCCUCCUCUGUUCAC [Esquitian 1] (Eterna round: R97, puzzle: Sensor, turn-off variant 1)	26.4 nM	26 nM				
AGUUGGCGAGGAUAUACAUGAGGAUCACCCAUGUGAAAUAUAAGAGUGAGGAAGAAAAGUAGAAGGCGCUGACA [Mat - Exclusion 3 - Mod of Salish D43] (puzzle: Exclusion 3)			80.4 nM			
GGCGGACAUGAGGAUCACCCAUGUAAGGAUAUUAGGCGAUCGUCGAUAGACGAUAGCCUGAGAAGGUACGCGCC [Mat - Exclusion 1 - Eli Mod - D14] (Eterna round: R97, puzzle: Exclusion 1)	18.6 nM	17.1 nM				
ACACUGCGAGGAUAUACAUGAGGAUCACCCAUGUGUCGGCAGGUACGGUAGCACUAGUGUAGAAGGCGCAUUAG [EX3 #40] (Eterna round: R97, puzzle: Exclusion 3)	17 nM	15.4 nM				
UGAUCUAGCGGAGGAUAUACAUGAGGAUCACCCAUGUAGACUCUAUGACCGUAGUCGUGGAGAGUGUAGAAGGCCGCUAGAUCU [JL ENG2 3.75] (Eterna round: R96, puzzle: Exclusion NG 2)	16.6 nM	13.1 nM		8.79 nM		
GAUUAUGCGAGCUUUAGGGACAUGAGGAUCACCCAUGUUCGUCUUAUUGGUCUGAAUACACUAACAUACCUAAAUCU [JMF 11] (puzzle: Sensor v3, turn-off variant 1)			33.7 nM		17.4 nM	21.7 nM
CCGCUGCAAGGAUAUACUUGCGGUGGUGCUCGAGAUCUUUUACUUGAGGAUCACCCAAGUAGAAGGUGCAAAAC [jl-ex2.4.53 ViennaUCT mod] (Eterna round: R97, puzzle: Exclusion 2)	26.2 nM	17.9 nM				
AAUAAAGGCCGAGGAUAUCGGAAAGGAAGUGUACGAGAAGGUGGCAAAAGAACAUGAGGAUCACCCAUGUGGGCCGAUCUUCCG [PowerStrip EXNG 1.4] (Eterna round: R96, puzzle: Exclusion NG 1)	33.3 nM	29.9 nM		28.8 nM		
UGUUCGCGAGGAUAUGCAUUCGAGUCCAUUACGUGUCUGGGACUUGAGGAUCACCCAAGUAGAAGGCGUCUCAC [salish99_ex2_r4_645] (Eterna round: R97, puzzle: Exclusion 2)	115 nM	122 nM				
GGCUGCAAUGUAGGAUAUCUGCACGUUUAGUGCAGAGAAGGACAUGAGGAUCACCCAUGUAUAGUAGCUUCGGCUACAGCAGCC [ENG1-D2] (Eterna round: R96, puzzle: Exclusion NG 1)	18.4 nM	17.2 nM		11.4 nM		
CCAUCGAGUGUGAGGAUAUGCUGGUCCUUGGAUCAGCAGAAGGCACAUGAGGAUCACCCAUGUGAAUACGGUGG [JL bmx4 3.20] (puzzle: Brourd's mod of Exclusion 4)			28.3 nM			
AUAGAGUCAGGAUAUACAGGUGGAGGAAAGCAGCAUAAGGAGUAGAAGGGACAUGAGGAUCACCCAUGUAAGUG [JR_Exclu4_Sub058] (puzzle: Exclusion 4)			62.3 nM		47.4 nM	60.2 nM
UUAAUUAAUUAUAUAAGAUCACAUGAGGAUCACCCAUGUAUAUAGGAUAUCAGCUCGAUUAGAGCUGAGAAGGAUAUACAAUAU [ExNG3/3-B1] (Eterna round: R96, puzzle: Exclusion NG 3)	172 nM	147 nM		138 nM		
AAUUGACGCCAAAUAUACAACAUGAGGAUCACCCAUGUACCCUAGGUACGCUCGCAGGCAAGCUUUGCUCGUCCACA [Eternabot (L1) Solution 33] (Eterna round: R97, puzzle: Sensor, turn-off variant 1)	40.2 nM	47.9 nM				
